Test results reported in the RNAGym collection of RNA variant scans (doi:10.1093/molbev/msab373).

B1: Azoarcus group I ribozyme (parent)
chain: GUGCCUUGCGCCGGGAAACCACGCAAGGGAUGGUGUCAAAUUCGGCGAAACCUAAGCGCCCGCCCGGGCGUAUGGCAACGCCGAGCCAAGCUUCGGCGCCUGCGCCGAUGAAGGUGUAGAGACUAGACGGCACCCACCUAAGGCAAACGCUAUGGUGAAGGCAUAGUCCAGGGAGUGGCGAAAGUCACACAAACCGG

Variants of: B1
Experiment: reverse-splicing fitness (ratio to wild type); higher = more active; in vitro selection; Mg2+ level not given
Procedure, shortened: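 An in vitro group I ribozyme library with randomized positions was T7-transcribed and gel-purified. In triplicate, 10 pmol RNA in EPPS pH 7.5 was reacted with 50 pmoles of a 30-nt RNA substrate for 1 h at 37 °C across several added MgCl2 levels (1–48 mM), then stopped with EDTA. Products were reverse transcribed from a substrate-complementary primer, PCR-amplified and sequenced (HiSeq 4000). Fitness is a variant's read proportion after selection over that before, normalised to wild type.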

Variant | reverse-splicing fitness
C82G A111C A120C A145G C150A C169U U176G | 0.00795
C82G A111C A120C A145G U176C | 0.0314
C82G A111C A120C A145G U176A | 0.0172
C82G A111C A120C A145G U176G | 0.00761
C82G A111C A120C A145U C150A C169U U176C | 0.0133
C82G A111C A120C A145U C150A C169U U176G | 0.00817
C82G A111C A120C A145U C150A C169U U176A | 0.0126
C82A A145U C150A | 0.0549
C82A A145U C150U | 0.449
C82A A145U C150G | 0.0675
C82A A145U C150G C169A U176G | 0.00583
C82A A145U C150G C169A U176A | 0.0118
C82A A145U C150G C169A U176C | 0.00974
C82G A111C A120C A145G C150U C169U U176G | 0.00732
C82G A111C A120C A145G C150U C169U U176A | 0.0156
C82G A111C A120C A145G C150U C169U U176C | 0.0131
C82A A145U C150U C169A U176A | 0.0121
C82A A145U C150U C169A U176C | 0.00936
C82A A145U C150U C169A U176G | 0.00602
C82A A145G C169G U176C | 0.0324
C82A A145G C169G U176A | 0.0218

Variant | reverse-splicing fitness
C82A A145G C169G U176G | 0.00481
C82A A145U | 0.635
C82G A111C A120C A145G C150G C169G U176G | 0.0062
C82G A111C A120C A145G C150G C169G U176C | 0.0138
C82G A111C A120C A145G C150G C169G U176A | 0.0118
C82A A145U C150G C169U | 0.00935
C82A A145U C150G C169G | 0.00797
C82A A145U C150G C169A | 0.00902
C82A C150G C169A U176A | 0.0112
C82A C150G C169A U176G | 0.00678
C82A C150G C169A U176C | 0.0111
C82G A111C A120C A145C C169G U176G | 0.0061
C82G A111C A120C A145C C169G U176A | 0.0259
C82G A111C A120C A145C C169G U176C | 0.0205
C82A C150U | 0.367
C82A C150G | 0.0487
C82A C150A | 0.0666
C82A C150A C169U | 0.00897
C82A C150A C169G | 0.00927
C82A C150A C169A | 0.0109
C82G A111C A120C A145G C169G | 0.00771

Variant | reverse-splicing fitness
C82G A111C A120C A145G C169U | 0.0139
C82G A111C A120C A145G C169A | 0.00871
C82A A145U C150U C169U U176G | 0.00508
C82A A145U C150U C169U U176A | 0.0118
C82A A145U C150U C169U U176C | 0.0131
C82G A111C A120C A145U C150A C169A U176C | 0.0129
C82G A111C A120C A145U C150A C169A U176G | 0.00868
C82G A111C A120C A145U C150A C169A U176A | 0.0163
C82A C150U C169A U176A | 0.0169
C82A C150U C169A U176G | 0.00593
C82A C150U C169A U176C | 0.0144
C82G A111C A120C A145C C169A U176C | 0.0118
C82G A111C A120C A145C C169A U176G | 0.0064
C82G A111C A120C A145C C169A U176A | 0.0175
C82G A111C A120C A145G C150A C169G | 0.00768
C82G A111C A120C A145G C150A C169U | 0.0117
C82G A111C A120C A145G C150A C169A | 0.0122
C82G A111C A120C A145C C150A C169A | 0.00796
C82G A111C A120C A145C C150A C169U | 0.0113
C82G A111C A120C A145C C150A C169G | 0.00859
C82G A111C A120C A145U C150G C169G U176A | 0.0088

Variant | reverse-splicing fitness
C82G A111C A120C A145U C150G C169G U176G | 0.00673
C82G A111C A120C A145U C150G C169G U176C | 0.00759
C82A C150G C169G U176G | 0.00581
C82A C150G C169G U176C | 0.00553
C82A C150G C169G U176A | 0.00711
C82A A145G C169U U176A | 0.0146
C82A A145G C169U U176G | 0.00459
C82A A145G C169U U176C | 0.0143
C82A A145U C169U U176G | 0.00434
C82A A145U C169U U176A | 0.0117
C82A A145U C169U U176C | 0.0127
C82A A145U C150G C169U U176C | 0.0116
C82A A145U C150G C169U U176A | 0.00877
C82A A145U C150G C169U U176G | 0.00595
C82G | 0.499
C82G A111C A120C A145U C150A C169G U176G | 0.00775
C82G A111C A120C A145U C150A C169G U176A | 0.0143
C82G A111C A120C A145U C150A C169G U176C | 0.0169
C82A C150G U176A | 0.0245
C82A C150G U176G | 0.0062
C82A C150G U176C | 0.0393
